Data as given in paper PMC10391610, “Survivin prevents the polycomb repressor complex 2 from methylating histone 3 lysine 27” (iScience, 2023).

B1: JARID2_(170-194) peptide (peptide)
peptide: PNSMVYFGSSQDEEEVEEEDDETED
notes: source: synthetic peptide, bought: Biomatik (purified to 95%)
B2: EZH2_(172-211) peptide (peptide)
peptide: VELVNALGQYNDDDDDDDGDDPEEREEKQKDLEDHRDDKE
notes: as for B1
B3: EED_(128-152) peptide (peptide)
peptide: SQGEIRLLQSYVDADADENFYTCAW
notes: embryonic ectoderm development (EED), residues 128-152; source: synthetic peptide, bought: Biomatik (purified to 95%)
B4: SUZ12_(573-597) peptide (peptide)
peptide: PLRPQEMEVDSEDEKDPEWLREKTI
notes: suppressor of zeste 12 (SUZ12), residues 573-597; source: synthetic peptide, bought: Biomatik (purified to 95%)

Target: T1, survivin (His-tagged, from pHIS8) (human, UniProt O15392 1-142)
T1 construct: survivin, human, residues 1-142 (142 amino acids), called the full-length construct; plasmid pHis8-survivin obtained from the Verdecia lab (doi 10.1038/76838); The tag is detected by the anti-His antibody on the microarray; For NMR the protein was uniformly 15N labelled (M9 medium); For MST one copy was labelled with the GREEN-MALEIMIDE (cysteine reactive) dye; also called survivin_(1-142); …
Test: NMR titration; peptides titrated into [U-15N]-survivin (0.3 mM); 2D [15N,1H]-SOFAST-HMQC; NMR buffer (50 mM Tris, 150 mM NaCl, 1 mM DTT, pH 7.5), 298 K; global signal attenuation fitted with a logistic function (critical peptide concentration, cpc)
Conditions: both partners purified

T1 sequence (O15392 whole entry, the tested form may be a part): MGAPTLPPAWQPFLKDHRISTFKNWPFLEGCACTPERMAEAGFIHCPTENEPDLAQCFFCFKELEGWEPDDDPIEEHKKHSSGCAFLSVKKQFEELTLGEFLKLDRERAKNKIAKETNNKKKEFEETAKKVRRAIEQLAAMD

Binder | NMR cpc (critical peptide concentration) [µM]
B1 | 0.0085
B2 | 0.0021
B3 | 0.0076
B4 | 0.0066
